Data reported in publication PMC8373891.

Target: T1, IFNAR1/IFNAR2 receptor (human (endogenous in HEK293)) (UniProt P17181)
T1 sequence 1: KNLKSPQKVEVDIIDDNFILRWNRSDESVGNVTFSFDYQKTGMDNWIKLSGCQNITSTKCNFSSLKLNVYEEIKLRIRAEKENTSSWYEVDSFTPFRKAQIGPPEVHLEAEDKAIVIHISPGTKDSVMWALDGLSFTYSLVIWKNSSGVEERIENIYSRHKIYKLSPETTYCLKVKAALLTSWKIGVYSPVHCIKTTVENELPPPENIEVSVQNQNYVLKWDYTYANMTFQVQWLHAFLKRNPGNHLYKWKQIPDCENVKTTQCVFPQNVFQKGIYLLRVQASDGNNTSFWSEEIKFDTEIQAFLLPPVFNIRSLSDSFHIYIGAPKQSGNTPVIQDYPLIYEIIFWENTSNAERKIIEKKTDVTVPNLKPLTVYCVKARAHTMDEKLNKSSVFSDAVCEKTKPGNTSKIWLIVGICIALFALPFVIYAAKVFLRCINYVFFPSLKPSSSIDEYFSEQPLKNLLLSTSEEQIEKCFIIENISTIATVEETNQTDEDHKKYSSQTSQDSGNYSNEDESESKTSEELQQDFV
T1 sequence 2: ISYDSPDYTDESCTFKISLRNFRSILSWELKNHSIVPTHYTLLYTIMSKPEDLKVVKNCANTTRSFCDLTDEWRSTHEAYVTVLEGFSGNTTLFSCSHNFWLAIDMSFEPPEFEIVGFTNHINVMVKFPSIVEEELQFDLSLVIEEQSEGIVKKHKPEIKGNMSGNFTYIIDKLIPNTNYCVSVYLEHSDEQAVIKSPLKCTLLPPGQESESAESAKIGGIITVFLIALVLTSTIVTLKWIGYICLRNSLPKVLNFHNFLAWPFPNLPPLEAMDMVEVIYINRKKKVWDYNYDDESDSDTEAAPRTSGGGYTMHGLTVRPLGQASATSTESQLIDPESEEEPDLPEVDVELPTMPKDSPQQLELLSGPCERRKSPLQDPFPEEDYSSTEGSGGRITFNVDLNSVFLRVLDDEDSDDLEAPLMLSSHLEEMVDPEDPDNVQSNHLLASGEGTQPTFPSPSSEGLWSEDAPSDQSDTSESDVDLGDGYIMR

B1: IFNα-7 (ligand)
chain: CDLPQTHSLRNRRALILLAQMGRISPFSCLKDRHEFRFPEEEFDGHQFQKTQAISVLHEMIQQTFNLFSTEDSSAAWEQSLLEKFSTELYQQLNDLEACVIQEVGVEETPLMNEDFILAVRKYFQRITLYLMEKKYSPCAWEVVRAEIMRSFSFSTNLKKGLRRKD
In the case of B1, the EC50 of ISG54-driven secreted embryonic alkaline phosphatase in the HEK293 (HEK-BLUE IFN-αβ) reporter cell line, dose response, 24 h is reported as 3.3 nM.

B2: IFNα-10 (ligand)
chain: CDLPQTHSLGNRRALILLGQMGRISPFSCLKDRHDFRIPQEEFDGNQFQKAQAISVLHEMIQQTFNLFSTEDSSAAWEQSLLEKFSTELYQQLNDLEACVIQEVGVEETPLMNEDSILAVRKYFQRITLYLIERKYSPCAWEVVRAEIMRSLSFSTNLQKRLRRKD
B2 gave an EC50 of ISG54-driven secreted embryonic alkaline phosphatase in the HEK293 (HEK-BLUE IFN-αβ) reporter cell line, dose response, 24 h of 0.3 nM.
